In patent US20210261667A1:

Key:
[1] = biological target: PD-L1 expressed on the cell surface (HEK293F transiently transfected; A375/PD-L1 stably transfected cells) (UniProt Q9NZQ7); assay: flow cytometry blocking assay on A375/PD-L1 cells; blocked ligand hPD-1(ECD)-Fc-Biotin, SA-PE detection; no concentration printed for this panel, which stands above the 0.5 ug/ml column
[2] = biological target: PD-L1 expressed on the cell surface (HEK293F transiently transfected; A375/PD-L1 stably transfected cells) (UniProt Q9NZQ7); assay: flow cytometry blocking assay on HEK293F cells transiently transfected with PD-L1; blocked ligand hPD-1 biotin, SA-PE detection
[3] = biological target: PD-L1 expressed on the cell surface (HEK293F transiently transfected; A375/PD-L1 stably transfected cells) (UniProt Q9NZQ7); assay: flow cytometry blocking assay on A375/PD-L1 cells; blocked ligand hPD-1(ECD)-Fc-Biotin, SA-PE detection [column 0.5 ug/ml]
[4] = biological target: PD-L1 expressed on the cell surface (HEK293F transiently transfected; A375/PD-L1 stably transfected cells) (UniProt Q9NZQ7); assay: flow cytometry blocking assay on A375/PD-L1 cells; blocked ligand hPD-1(ECD)-Fc-Biotin, SA-PE detection [column 0.005 ug/ml]
[5] = biological target: PD-L1 expressed on the cell surface (HEK293F transiently transfected; A375/PD-L1 stably transfected cells) (UniProt Q9NZQ7); assay: flow cytometry blocking assay on A375/PD-L1 cells; blocked ligand hPD-1(ECD)-Fc-Biotin, SA-PE detection, MFI [table, row 1]
[6] = biological target: PD-L1 expressed on the cell surface (HEK293F transiently transfected; A375/PD-L1 stably transfected cells) (UniProt Q9NZQ7); assay: flow cytometry blocking assay on A375/PD-L1 cells; blocked ligand hPD-1(ECD)-Fc-Biotin, SA-PE detection [column 0.05 ug/ml]

PD-L1 expressed on the cell surface (HEK293F transiently transfected; A375/PD-L1 stably transfected cells), sequence (Q9NZQ7 19-290 limits assumed): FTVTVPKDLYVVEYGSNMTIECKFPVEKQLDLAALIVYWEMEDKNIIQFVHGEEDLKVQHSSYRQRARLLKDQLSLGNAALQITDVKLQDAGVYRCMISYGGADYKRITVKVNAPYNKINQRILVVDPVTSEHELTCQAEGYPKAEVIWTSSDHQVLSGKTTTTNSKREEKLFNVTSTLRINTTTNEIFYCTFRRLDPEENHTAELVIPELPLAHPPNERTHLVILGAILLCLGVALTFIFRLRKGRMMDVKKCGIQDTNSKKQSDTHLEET

Substance | Q2 % (cells still positive for hPD-1(ECD)-Fc-Biotin with the antibody present) [1] [%] | Q2 % (cells still positive for PD-1-biotin with the antibody present) [2] [%] | Q2 % (cells still positive for hPD-1(ECD)-Fc-Biotin) at 0.5 ug/ml antibody [3] [%] | Q2 % (cells still positive for hPD-1(ECD)-Fc-Biotin) at 0.005 ug/ml antibody [4] [%] | IC50 [5] [µg/mL] | Q2 % (cells still positive for hPD-1(ECD)-Fc-Biotin) at 0.05 ug/ml antibody [6] [%]
negative control antibody | 85.9 | 86.2 |  |  |  | 
Tecentriq (antibody) |  |  | 11.8 | 86 | 0.456 | 85.3
